From patent publication EP4786495A1 (Nanjing Leads Biolabs Co., Ltd., dated 2026)

B1: anti-BDCA2 chimeric antibody 26H10A11-1 (antibody, human IgG1, kappa, V domains shown)
VH: DVKLVESGGGLVKPGGSLKLSCAASGFTFSSSTMSWVRQTPEKRLEWVATTGGGGSYTYNPDSVKGRFTISRDNAKNTLYLQMSSLRSEDTAMYYCTRDRYDGYYFSMDFWGQGTSVTVSS
VL: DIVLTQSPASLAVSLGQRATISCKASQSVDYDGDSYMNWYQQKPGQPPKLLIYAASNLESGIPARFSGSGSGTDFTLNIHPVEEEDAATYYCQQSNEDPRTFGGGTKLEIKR
B2: bispecific fusion protein BI-9D2-A (bispecific antibody, human IgG1, kappa)
heavy: not shown
light: ETVLTQSPATLSLSPGERATLSCRASSSVSYMYWFQQKPGQAPRLLIYSTSNLASGIPARFSGSGSGTDYTLTISSLEPEDFAVYYCQQRRNYPHTFGGGTKVEIKRTVAAPSVFIFPPSDEQLKSGTASVVCLLNNFYPREAKVQWKVDNALQSGNSQESVTEQDSKDSTYSLSSTLTLSKADYEKHKVYACEVTHQGLSSPVTKSFNRGEC
notes: also called heavy chain 37F2C6-HuVH3-D2
B3: bispecific fusion protein BI-9ND2-A (bispecific antibody, human IgG1, kappa)
heavy: not shown
light: B2 light
notes: also called heavy chain 37F2C6-HuVH3-3N-D2
B4: bispecific fusion protein having YTE mutations in the Fc region BI-9ND2-A-YTE (bispecific antibody, human IgG1, kappa)
heavy: SLSCRKEQGKFYDHLLRDCISCASICGQHPKQCAYFCENGGGGSGGGGSGGGGSQVQLVQSGAEVKKPGASVKVSCKASGYTFTDFAVHWVRQAPGQRLEWMGLIGTSSGSTNYNQKFQGRATMTVDKSANTAYMELSSLRSEDTAVYYCARNGYYVGYYALDYWGQGTTVTVSSASTKGPSVFPLAPSSKSTSGGTAALGCLVKDYFPEPVTVSWNSGALTSGVHTFPAVLQSSGLYSLSSVVTVPSSSLGTQTYICNVNHKPSNTKVDKKVEPKSCDKTHTCPPCPAPELLGGPSVFLFPPKPKDTLYITREPEVTCVVVDVSHEDPEVKFNWYVDGVEVHNAKTKPREEQYNSTYRVVSVLTVLHQDWLNGKEYKCKVSNKALPAPIEKTISKAKGQPREPQVYTLPPSRDELTKNQVSLTCLVKGFYPSDIAVEWESNGQPENNYKTTPPVLDSDGSFFLYSKLTVDKSRWQQGNVFSCSVMHEALHNHYTQKSLSLSPGK
light: B2 light
notes: also called heavy chain 37F2C6-HuVH3-ND2-YTE
B5: control antibody telitacicept (Fc fusion)
chain: SRVDQEERFPQGLWTGVAMRSCPEEQYWDPLLGTCMSCKTICNHQSQRTCAAFCRSLSCRKEQGKFYDHLLRDCISCASICGQHPKQCAYFCENKLRSPVNLPPELDKTHTCPPCPAPEAEGAPSVFLFPPKPKDTLMISRTPEVTCVVVDVSHEDPEVKFNWYVDGVEVHNAKTKPREEQYNSTYRVVSVLTVLHQDWLNGKEYKCKVSNKALPSSIEKTISKAKGQPREPQVYTLPPSRDELTKNQVSLTCLVKGFYPSDIAVEWESNGQPENNYKTTPPVLDSDGSFFLYSKLTVDKSRWQQGNVFSCSVMHEALHNHYTQKSLSLSPGK
notes: TACI-Fc fusion control; also called TACI fusion protein telitacicept
B6: anti-BDCA2 chimeric antibody 37F2C6 (antibody, human IgG1, kappa, V domains shown)
VH: QVLLQQSGPELVRPGVSVKVSCKGSGYTFTDFAVHWVKQSQTKSLEWIGLIGTSSGSTNYNQKFKDKATMTVDKSSNTAYLELARLTSEDSAIYYCARNGYYVGYYALDYWGQGTSVTVSS
VL: QTVLTQSPAIMSASPGEKVTITCSASSSVSYMYWFQQKPGTSPKLWIYSTSNLASGVPPRFSGSGSGTSYSLTISRMEAEDAATYYCQQRRNYPHTFGGGTKLEIKR

Columns and labels:
[1] = target: T1, human BDCA2 protein (Kactus Biosystems, Cat# BCA-HM402) (human, UniProt Q8WTT0 45-213); test: BLI Octet RED96, antibody captured on AHC sensor, BDCA2 50 nM in solution
T1 construct: also called Human BDCA2-His
T1 sequence: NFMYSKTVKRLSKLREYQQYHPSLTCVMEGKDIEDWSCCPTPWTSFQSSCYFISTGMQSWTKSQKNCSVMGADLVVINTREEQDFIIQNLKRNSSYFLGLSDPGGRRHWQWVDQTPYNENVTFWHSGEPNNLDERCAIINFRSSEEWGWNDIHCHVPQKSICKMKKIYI

[2] = target: T2, human BAFF protein (ACRO Biosystems, Cat. No.: BAF-H52D4) (human, UniProt Q9Y275 134-285); test: BLI Octet RED96e, protein captured on AHC sensor, BAFF 100 nM in solution
[3] = target: T3, human APRIL protein (ACRO Biosystems, Cat. No.: APL-H52D1) (human, UniProt O75888 115-250, limits assumed); test: BLI Octet RED96e, protein captured on AHC sensor, APRIL 100 nM in solution
T3 sequence (looked up): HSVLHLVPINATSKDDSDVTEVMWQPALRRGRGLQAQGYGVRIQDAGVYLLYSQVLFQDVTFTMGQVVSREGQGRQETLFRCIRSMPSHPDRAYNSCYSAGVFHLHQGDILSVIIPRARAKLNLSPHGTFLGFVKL

[4] = target: T1, human BDCA2 protein (Kactus Biosystems, …); test: BLI Octet RED96e, fusion protein captured on AHC sensor, BDCA2 1.56-100 nM in solution
[5] = target: T1, human BDCA2 protein (Kactus Biosystems, …); test: BLI Octet RED96e, protein captured on AHC sensor, BDCA2 100 nM in solution
[6] = target: T2, human BAFF protein (ACRO Biosystems, …); test: BLI Octet RED96e, protein captured on AHC sensor, BAFF 1.56-100 nM in solution
[7] = target: T3, human APRIL protein (ACRO Biosystems, …); test: BLI Octet RED96e, protein captured on AHC sensor, APRIL 1.56-100 nM in solution
[8] = target: T4, human FcRn protein (ACRO Biosystems, Cat. No.: FCM-H82W4) (human, UniProt P55899 24-297; P61769 21-119); test: BLI Octet RED96e, FcRn on SA sensor, fusion protein 3.13-200 nM; binding pH 6.0, dissociation pH 6.0
[9] = target: T4, human FcRn protein (ACRO Biosystems, …); test: BLI Octet RED96e, FcRn on SA sensor, fusion protein 3.13-200 nM; binding pH 6.0, dissociation pH 7.4
[10] = target: T1, human BDCA2 protein (Kactus Biosystems, …); test: BLI Octet RED96e, fusion protein captured on AHC sensor, BDCA2 1.56-100 nM in solution; remark: listed apart in the source
[11] = target: T2, human BAFF protein (ACRO Biosystems, …); test: BLI Octet RED96e, protein captured on AHC sensor, BAFF 1.56-100 nM in solution; remark: listed apart in the source
[12] = target: T3, human APRIL protein (ACRO Biosystems, …); test: BLI Octet RED96e, protein captured on AHC sensor, APRIL 1.56-100 nM in solution; remark: listed apart in the source
[13] = target: T1, human BDCA2 protein (Kactus Biosystems, …); test: BLI Octet RED96e, antibody captured on AHC sensor, BDCA2 100 nM in solution

T2 sequence (Q9Y275 134-285 limits assumed): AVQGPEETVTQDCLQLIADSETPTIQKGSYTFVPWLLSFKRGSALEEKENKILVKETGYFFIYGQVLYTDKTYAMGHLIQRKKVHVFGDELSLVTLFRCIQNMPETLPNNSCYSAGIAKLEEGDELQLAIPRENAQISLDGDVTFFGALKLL
T4 sequence (P55899 24-297 limits assumed, chain 1 of 2): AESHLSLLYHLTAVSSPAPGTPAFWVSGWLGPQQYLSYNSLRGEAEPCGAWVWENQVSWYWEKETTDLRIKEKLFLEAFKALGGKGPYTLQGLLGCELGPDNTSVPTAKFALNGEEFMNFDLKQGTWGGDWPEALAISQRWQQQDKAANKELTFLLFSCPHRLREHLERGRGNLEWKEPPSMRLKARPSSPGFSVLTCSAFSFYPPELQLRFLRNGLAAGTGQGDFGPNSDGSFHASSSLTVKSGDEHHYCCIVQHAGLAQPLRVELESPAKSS
T4 sequence (P61769 21-119 limits assumed, chain 2 of 2): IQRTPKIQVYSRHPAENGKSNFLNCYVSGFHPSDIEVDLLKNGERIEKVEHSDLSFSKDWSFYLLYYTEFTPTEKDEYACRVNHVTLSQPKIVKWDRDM

Row | Binder | Kd [1] [nM] | koff [1] [s⁻¹] | kon [1] [M⁻¹ s⁻¹] | Kd [2] [nM] | Response (nm) [2] [nm] | koff [2] [s⁻¹] | kon [2] [M⁻¹ s⁻¹] | Kd [3] [nM] | Response (nm) [3] [nm] | koff [3] [s⁻¹] | kon [3] [M⁻¹ s⁻¹] | Kd [4] [nM] | Response (nm) [5] [nm] | kon [5] [M⁻¹ s⁻¹] | Kd [6] [nM] | koff [6] [s⁻¹] | kon [6] [M⁻¹ s⁻¹] | Kd [7] [nM] | koff [7] [s⁻¹] | kon [7] [M⁻¹ s⁻¹] | also measured
1 | B1 | 0.503 | 6.16e-05 | 123000 | – | – | – | – | – | – | – | – | – | – | – | – | – | – | – | – | – | –
2 | B2 | – | – | – | < 0.001 | 0.338 | < 1e-07 | 407000 | 0.246 | 0.252 | 0.000214 | 873000 | < 0.001 | 0.481 | 154000 | < 0.001 | < 1e-07 | 571000 | 0.679 | 0.00059 | 868000 | koff [4]: < 1e-07 s⁻¹; kon [4]: 88800 M⁻¹ s⁻¹; Kd [5]: < 0.001 nM; koff [5]: < 1e-07 s⁻¹
3 | B3 | – | – | – | < 0.001 | 0.49 | < 1e-07 | 438000 | < 0.001 | 0.397 | < 1e-07 | 722000 | < 0.001 | 0.449 | 112000 | 0.147 | 7.23e-05 | 492000 | 0.415 | 0.000321 | 774000 | koff [4]: < 1e-07 s⁻¹; kon [4]: 86600 M⁻¹ s⁻¹; Kd [8]: 20.1 nM; koff [8]: 0.035 s⁻¹; kon [8]: 1.74e+06 M⁻¹ s⁻¹; Kd [5]: < 0.001 nM; koff [5]: < 1e-07 s⁻¹; Kd [9]: 3140 nM; koff [9]: 0.0842 s⁻¹; kon [9]: 26800 M⁻¹ s⁻¹
4 | B4 | – | – | – | – | – | – | – | – | – | – | – | – | – | – | – | – | – | – | – | – | Kd [10]: < 0.001 nM; koff [10]: < 1e-07 s⁻¹; kon [10]: 100000 M⁻¹ s⁻¹; Kd [8]: 5.12 nM; koff [8]: 0.0062 s⁻¹; kon [8]: 1.21e+06 M⁻¹ s⁻¹; Kd [11]: 0.0384 nM; koff [11]: 1.97e-05 s⁻¹; kon [11]: 515000 M⁻¹ s⁻¹; Kd [12]: < 0.001 nM; koff [12]: < 1e-07 s⁻¹; kon [12]: 981000 M⁻¹ s⁻¹; Kd [9]: 727 nM; koff [9]: 0.0888 s⁻¹; kon [9]: 122000 M⁻¹ s⁻¹
5 | B5 | – | – | – | 1.1 | 0.319 | 0.000262 | 239000 | 2.08 | 0.199 | 0.00141 | 681000 | – | -0.0175 | 95600 | 1.47 | 0.000475 | 323000 | 2.05 | 0.00139 | 678000 | Kd [11]: 1.47 nM; koff [11]: 0.000475 s⁻¹; kon [11]: 323000 M⁻¹ s⁻¹; Kd [12]: 2.05 nM; koff [12]: 0.00139 s⁻¹; kon [12]: 678000 M⁻¹ s⁻¹
6 | B6 | < 0.001 | < 1e-07 | 161000 | – | – | – | – | – | – | – | – | – | – | – | – | – | – | – | – | – | Kd [13]: < 0.001 nM; koff [13]: < 1e-07 s⁻¹; kon [13]: 141000 M⁻¹ s⁻¹
